Assay results as given in patent US20250215052A1, “INHIBITORS OF PICK1 AND USES THEREOF” (University of Copenhagen, priority 2018, published 2025).
Like-named read-outs stand apart in the source and are kept apart here.

What was measured:
[1] = target: T1, fluorescently labelled recombinant rat PICK1 (DY549-SNAP-PICK1) (rat), Q9EP80
[2] = target: T1, fluorescently labelled recombinant rat …; experiment: SCMS, dissociation of PICK1 pre-bound to TacDAT C24 sheets by peptide
[3] = target: T2, Protein Interacting with C Kinase-1 (PICK1), purified recombinant, Q9EP80; experiment: fluorescence polarization competition, tracer 5-FAM-TAT-C5, purified PICK1
[4] = target: T2, Protein Interacting with C Kinase-1 …; experiment: fluorescence polarization competition, tracer 5FAM-TAT-(C5), purified PICK1

T2 sequence (Q9EP80 whole entry): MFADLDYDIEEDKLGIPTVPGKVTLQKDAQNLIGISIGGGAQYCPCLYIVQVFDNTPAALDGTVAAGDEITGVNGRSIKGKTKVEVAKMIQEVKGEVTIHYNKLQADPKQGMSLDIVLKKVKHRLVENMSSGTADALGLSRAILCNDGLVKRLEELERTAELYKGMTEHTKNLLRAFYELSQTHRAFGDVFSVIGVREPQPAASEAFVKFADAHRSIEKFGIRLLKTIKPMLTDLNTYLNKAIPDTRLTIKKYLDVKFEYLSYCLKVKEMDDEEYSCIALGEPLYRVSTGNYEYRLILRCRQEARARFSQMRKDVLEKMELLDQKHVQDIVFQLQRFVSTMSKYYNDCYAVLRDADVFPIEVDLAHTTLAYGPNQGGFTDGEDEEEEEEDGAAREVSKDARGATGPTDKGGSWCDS
T1 sequence (Q9EP80 whole entry): as above

B1: TAT11-PEG4-(DATC5)2 (peptide)
peptide 1: HWLKV
peptide 2: YGRKKRRQRRR
modifications: not checked
[1]
  IC50: 7 nM
[2]
  IC50: 1170 nM
[3]
  Fold affinity change (vs TAT-P4-(C5)2): 1 fold
  Ki: 4 nM
[4]
  Ki: 6.6 nM
  fold shift in affinity: 301 fold

B2: TP10-P4-(C5)2 (peptide)
peptide 1: HWLKV
peptide 2: […]
modifications: not checked
[3]
  Fold affinity change (vs TAT-P4-(C5)2): 0.5 fold
  Ki: 7.8 nM
